Laboratory results from US20250027068A1 (published 2025).

Assays:
[1] = molecular target: pooled human IgG (human IgG1, 2, 3 and 4) (human); assay: cell-based or functional assay
[2] = molecular target: pooled human IgG (human); assay: cell-based or functional assay
Note: test concentration or dose not given here.

| Binder | Enzyme Activity Endpoint Assay: Fab′2 [1] [ng/µL] | Enzyme Activity Endpoint Assay: Fc [1] [ng/µL] | Enzyme Activity Endpoint Assay: IgG [1] [ng/µL] | Enzyme Activity Endpoint Assay: scIgG [1] [ng/µL] | Enzyme Activity Endpoint Assay (purified): Fab′2 [2] [ng/µL] | Enzyme Activity Endpoint Assay (purified): Fc [2] [ng/µL] | Enzyme Activity Endpoint Assay (purified): IgG [2] [ng/µL] | Enzyme Activity Endpoint Assay (purified): scIgG [2] [ng/µL] |
| --- | --- | --- | --- | --- | --- | --- | --- | --- |
| PRT-280 (enzyme) MVTSVWTKGVTPPAKFTQGEDVFHAPYVANQGWYDITKTFNGKDDLLCGAATAGNMLHWWFDQNKEKIEAYLKKHPDKQKIMFGDQELLDVRKVINTKGDQTNSELFNYFRDKAFPNLSARRIGVMPDLVLDMFINGYYLNVYKTQTTDVNRTYQEKDRRGGIFDAVFTRGDQSKLLTSRHDFKEKNLKEISDLIKKELTEGKALGLSHTYANVGINHVINLWGADFDSNGNLKAIYVTDSDSNASIGMKKYFVGVNSSGKVAISAKEIKEDNIGAQVLGLFTLSTGQDSWNQTN | 423 | 305 | 319 | 0 |  |  |  |  |
| PRT-288 (enzyme) MVTSVWTKGVTPPAKFTQGEDVFHAPYDANQGWYDITKEFNGKDDLLCGAATAGNMLHWWFDQNKEKIEAYLKKHPDKQKIMFGDQELLDVRKVINTKGDQTNSELFNYFRDKAFPNLSARRIGVMPDLVLDMFINGYYLNVYKTQTTDVNRTYQEKDRRGGIFDAVFTRGDQSKLLTSRHDFKEKNLKEISDLIKKELTEGKALGLSHTYANVRIGHVINLWGADFDSNGNLKAIYVTDSDSNASIGMKKYGVGVNSAGKVAISAKEIKEDNIGAQVLGLFTLSTGQDSWNQTN | 439 | 334 | 348 | 0 |  |  |  |  |
| PRT-376 (enzyme) MVTSVWTKGVTPPTNFTYGEDVLHAPYVANQGWYDITKLFNGKDDLLCGAATAGNMLHWWFDQNKEQIENYLKKHPEKQKINFNGEQMFDVKEAIDTKDSQLDSKLFEYFKEKAFPYLSTKHLGVFPDHVIDMFINGYRLSLTNHGPTPVKRGSKDPRGGIFDAVFTRGDQSKLLTNRHDFKEKTLKEISDLIKQELTEGKALGISHTYANVRINHVINLWGADFDAEGNLEAIYVTDSDSNASIGMKKYFVGVNSNGKVAISAKEIEEDNIGAQVLGLFTLSTGQDIWNQTN | 496 | 325 | 0 | 196 |  |  |  |  |
| PRT-217 (enzyme) MEVVEVWPYGQNPNGKTEILSQTEDSESLQRLRDIEDFQAEKKKQNVVYTKWLDGVTVDDSDFRKIKDGNTEYYATPLLNGRGFYDINKDFNRDSDKCAAAVAANMFHYWLDRNRDNVDRFLKQNPEKHGIIELPDGQLKLSDFLNTYESDNNYRDKSKLFDFISKNFNGPVWTNKLLDNYINGYGYNYKYGRTIEDPTKNTSKINFFKKVFNEKILTNVHQIFNYNEFSTLLSEALYTGKAIGLSYGPGGLRHSLGHIISVWGADLDADGNVVAIYVTDSDDKKLTIGDERVGLKRYKISTDDEGRARLTAYTETDNTGGQVRGIYTLDTGKQAWADYFDKTEQTGTDQAEQLEHHHHHH |  |  |  |  | 0 | 86 | 1580 | 41 |
| PRT-218 (enzyme) MEVVEVWPYGQNPNGKTEILSQTEDSESLQRLRDIEDFQAEKKKQGVVYTKWLDGVNVDDHEFRKITDGNTEYYATPLLNGRGYYDINKDFNRDSDKCAAAVAANMFHYWLDRNRDNVDRFLRQNPDKHGIIELPDGQLKLSDFLNTYESDHDYRDKSKLFDFISNNFNGPVWTNKLLDNYINGYGYNYKYGRTIEDPTKNTSKINFFKEVFNGKLLTDNHSIRNKNEFSSKLSEALYTGKAIGLSYGPAGLRHSLGHIISVWGADLDEDGNVVAIYVTDSDDKKLTIGDERVGLKRYKVSYDDEGRARLTAYEETDNTGGEIRGLYTLDTGKQYWADYFDKTEQTGTDQAEQLEHHHHHH |  |  |  |  | 0 | 39 | 1780 | 0 |
| PRT-219 (enzyme) MEVVEVWPYGQNPNGKTEILSQTEDSESLQRLRDIEDFQAEKKKQNVVYTKWLDGVTVDDSDFRKIKDGNTEYYATPLLNGRGFYDINKDFNRDSDKCAAAVAANMFHYWLDRNRDNVDRFLKQNPEKHGIIELPDGQLKLSDFLNTYESDNNYRDKSKLFDFISKNFNGPVWTNKLLDNYINGYGYNYKYGRTIEDPTKNTSKINFFKKVFNEKILTNVHQIFNYNEFSTLLSEALYTGKAIGLSYGPGGLRHSLGHIISVWGADLDADGNVVAIYVTDSDDKKLTIGDERVGLKRYKISTDDEGRARLTAYTETDNTGGQVRGIWTLDTGKQAWADYFDKTEQTGTDQAEQLEHHHHHH |  |  |  |  | 104 | 407 | 886 | 443 |
| PRT-220 (enzyme) MEVVEVWPYGQNPNGKTEILSQTEDSESLQRLRDIEDFQAEKKKQGVVYTKWLDGVNVDDHEFRKITDGNTEYYATPLLNGRGYYDINKDFNRDSDKCAAAVAANMFHYWLDRNRDNVDRFLRQNPDKHGIIELPDGQLKLSDFLNTYESDHDYRDKSKLFDFISNNFNGPVWTNKLLDNYINGYGYNYKYGRTIEDPTKNTSKINFFKEVFNGKLLTDNHSIRNKNEFSSKLSEALYTGKAIGLSYGPAGLRHSLGHIISVWGADLDEDGNVVAIYVTDSDDKKLTIGDERVGLKRYKVSYDDEGRARLTAYEETDNTGGEIRGLWTLDTGKQYWADYFDKTEQTGTDQAEQLEHHHHHH |  |  |  |  | 0 | 61 | 2320 | 0 |
| PRT-221 (enzyme) MEVVEVWPYGQNPNGKTEILSQTEDSESLQRLRDIEDFQAEKKMQNVVYTKWLDGVDVKDHDFRKIVDGNIAYYATPLLNGRGFYDINKDFNRDSDKCAAAVAANMFHYWLDINRDNVDRFLRQNPEKHGIIELPDGQLKLSDFLNTYESDHGYRDKSKLFDFISNNFNGPVWTDKLLDNYINGYAYNYKYGRTIEDPTKNTSKINFFKEVFNEKILTNNHSIRNQNEFSVLLSEALYTGKAIGLSYGPAGLRHSLGHIISVWGADLDADGNVVAIYVTDSDDKKLTIGDERVGLKRYKISTDDENRLRLTAYEETHNTGGQIRGLWTLDTGKQAWADYFDKTEQTGTDQAEQLEHHHHHH |  |  |  |  | 117 | 439 | 653 | 461 |
| PRT-222 (enzyme) MEVVEVWPYGQNPNGKTEILSQTEDSESLQRLRDIEDFQAEKKMQNVVYTKWLDGVDVKDHDFRKIVDGNIAYYATPLLNGRGFYDINKDFNRDSDKCAAAVAANMFHYWLDINRDNVDRFLRQNPEKHGIIELPDGQLKLSDFLNTYESDHGYRDKSKLFDFISNNFNGPVWTDKLLDNYINGYAYNYKYGRTIEDPTKNTSKINFFKEVFNEKILTNNHSIRNQNEFSVLLSEALYTGKAIGLSYGPAGLRHSLGHIISVWGADLDADGNVVAIYVTDSDDKKLTIGDERVGLKRYKISTDDEGRLRLTAYEETHNTGGQIRGLWTLDTGKYAWADYFDKTEQTGTDQAEQLEHHHHHH |  |  |  |  | 487 | 78 | 1550 | 21 |
| PRT-223 (enzyme) MEVVEVWPYGQNPNGKTEILSQTEDSESLQRLRDIEDFQAEKKKENVVYTKWLDGVDVKDHDFRKIVDGNIAYYATPLLNGRGFYDINKDFNRDSDKCAAAVAANMFHYWLDINRDNVDRFLRQNPEKHGIIELPDGQLKLSDFLNTYESDHGYRDKSKLFDFISNNFNGPVWTDKLLDNYINGYAYNYKYGRTIEDPTKNTSKINFFKEVFNEKILTNNHSIRNQNEFSDLLSEALYTGKAIGLSYGPAGLRHSLGHIISVWGADLDADGNVVAIYVTDSDDKKLTIGDERVGLKRYKISTDDENRLRLTAYEETHNTGGQIRGLWTLDTGKQAWADYFDKTEQTGTDQAEQLEHHHHHH |  |  |  |  | 189 | 391 | 375 | 316 |
| PRT-224 (enzyme) MEVVEVWPYGQNPNGKTEILSQTEDSESLQRLRDIEDFQAEKKKQNVVYTKWLDGVDVKDHDFRKIVDGNIAYYATPLLNGRGFYDINKDFNRDSDKCAAAVAANMFHYWLDINRDNVDRFLRQNPEKHGIIELPDGQLKLSDFLNTYESDHGYRDKSKLFDFISNNFNGPVWTDKLLDNYINGYAYNYKYGRTIEDPTKNTSKINFFKEVFNEKILTNNHSIRNQNEFSVLLSEALYTGKAIGLSYGPAGLRHSLGHIISVWGADLDADGNVVAIYVTDSDDKKLTIGDERVGLKRYKISTDDEGRLRLTAYEETHNTGGQIRGLWTLDTGKQAWADYFDKTEQTGTDQAEQLEHHHHHH |  |  |  |  | 217 | 382 | 344 | 314 |
| PRT-225 (enzyme) MEVVEVWPYGQNPNGKTEILSQTEDSESLQRLRDIEDFQAEKKKENVVYTKWLDGVDVKDHDFRKIVDGNIEYYATPLLNGRGFYDINKDFNRDSDKCAAAVAANMFHYWLDINRDNVDRFLRQNPEKHGIIELPDGQLKLSDFLNTYESDHGYRDKSKLFDFISNNFNGPVWTDKLLDNYINGYAYNYKYGRTIEDPTKNTSKINFFKEVFNEKILTNNHSIRNQNEFSVLLSEALYTGKAIGLSYGPAGLRHSLGHIISVWGADLDADGNVVAIYVTDSDDKKLTIGDERVGLKRYKISTDDENRARLTAYEETDNTGGQIRGLWTLDTGKQAWADYFDKTEQTGTDQAEQLEHHHHHH |  |  |  |  | 0 | 63 | 1500 | 0 |
| PRT-226 (enzyme) MEVVEVWPYGQNPNGKTEILSQTEDSESLQRLRDIEDFQAEKKKQNVVYTKWLDGVDVDDHDFRKIVDGNTEYYATPLLNGRGFYDINKDFNRDSDKCAAAVAANMFHYWLDRNRDNVDRFLRQNPEKHGIIELPDGQLKLSDFLNTYESDHGYRDKSKLFDFISNNFNGPVWTNKLLDNYINGYGYNYKYGRTIEDPTKNTSKINFFKEVFNEKILTNNHSIRNQNEFSVLLSEALYTGKAIGLSYGPAGLRHSLGHIISVWGADLDADGNVVAIYVTDSDDKKLTIGDERVGLKRYKISTDDEGRARLTAYEETDNTGGQIRGLWTLDTGKQAWADYFDKTEQTGTDQAEQLEHHHHHH |  |  |  |  | 0 | 0 | 1960 | 0 |
